Experimental data reported in paper PMC11592734.

Tests used:
[1] = target: wild-type recombinant human cMyBP-C C0-C2 region (hC0-C2^WT) (human); test: ITC; 20 µM hC0-C2 titrated against 350 µM hS2; n = 3
[2] = target: wild-type recombinant human cMyBP-C C0-C2 region (hC0-C2^WT) (human); test: solid-phase binding assay; 20 µM hC0-C2 incubated with increasing concentrations of hS2 (0-20 µM); binding of hS2 read by fluorescence intensity; Michaelis-Menten binding fit; n = 3
[3] = target: recombinant human cMyBP-C C0-C2 region with D389V (hC0-C2^D389V) (human); test: as above
[4] = target: whole-length cardiac myosin isolated from mice hearts (mouse) (UniProt Q91Z83); test: co-sedimentation; whole-length cardiac myosin (10 µM) incubated with increasing concentration (0-10 µM) of hC0-C2; Michaelis-Menten binding fit
Sequence of UniProt Q91Z83 (Q91Z83 whole entry, chain 1 of 3): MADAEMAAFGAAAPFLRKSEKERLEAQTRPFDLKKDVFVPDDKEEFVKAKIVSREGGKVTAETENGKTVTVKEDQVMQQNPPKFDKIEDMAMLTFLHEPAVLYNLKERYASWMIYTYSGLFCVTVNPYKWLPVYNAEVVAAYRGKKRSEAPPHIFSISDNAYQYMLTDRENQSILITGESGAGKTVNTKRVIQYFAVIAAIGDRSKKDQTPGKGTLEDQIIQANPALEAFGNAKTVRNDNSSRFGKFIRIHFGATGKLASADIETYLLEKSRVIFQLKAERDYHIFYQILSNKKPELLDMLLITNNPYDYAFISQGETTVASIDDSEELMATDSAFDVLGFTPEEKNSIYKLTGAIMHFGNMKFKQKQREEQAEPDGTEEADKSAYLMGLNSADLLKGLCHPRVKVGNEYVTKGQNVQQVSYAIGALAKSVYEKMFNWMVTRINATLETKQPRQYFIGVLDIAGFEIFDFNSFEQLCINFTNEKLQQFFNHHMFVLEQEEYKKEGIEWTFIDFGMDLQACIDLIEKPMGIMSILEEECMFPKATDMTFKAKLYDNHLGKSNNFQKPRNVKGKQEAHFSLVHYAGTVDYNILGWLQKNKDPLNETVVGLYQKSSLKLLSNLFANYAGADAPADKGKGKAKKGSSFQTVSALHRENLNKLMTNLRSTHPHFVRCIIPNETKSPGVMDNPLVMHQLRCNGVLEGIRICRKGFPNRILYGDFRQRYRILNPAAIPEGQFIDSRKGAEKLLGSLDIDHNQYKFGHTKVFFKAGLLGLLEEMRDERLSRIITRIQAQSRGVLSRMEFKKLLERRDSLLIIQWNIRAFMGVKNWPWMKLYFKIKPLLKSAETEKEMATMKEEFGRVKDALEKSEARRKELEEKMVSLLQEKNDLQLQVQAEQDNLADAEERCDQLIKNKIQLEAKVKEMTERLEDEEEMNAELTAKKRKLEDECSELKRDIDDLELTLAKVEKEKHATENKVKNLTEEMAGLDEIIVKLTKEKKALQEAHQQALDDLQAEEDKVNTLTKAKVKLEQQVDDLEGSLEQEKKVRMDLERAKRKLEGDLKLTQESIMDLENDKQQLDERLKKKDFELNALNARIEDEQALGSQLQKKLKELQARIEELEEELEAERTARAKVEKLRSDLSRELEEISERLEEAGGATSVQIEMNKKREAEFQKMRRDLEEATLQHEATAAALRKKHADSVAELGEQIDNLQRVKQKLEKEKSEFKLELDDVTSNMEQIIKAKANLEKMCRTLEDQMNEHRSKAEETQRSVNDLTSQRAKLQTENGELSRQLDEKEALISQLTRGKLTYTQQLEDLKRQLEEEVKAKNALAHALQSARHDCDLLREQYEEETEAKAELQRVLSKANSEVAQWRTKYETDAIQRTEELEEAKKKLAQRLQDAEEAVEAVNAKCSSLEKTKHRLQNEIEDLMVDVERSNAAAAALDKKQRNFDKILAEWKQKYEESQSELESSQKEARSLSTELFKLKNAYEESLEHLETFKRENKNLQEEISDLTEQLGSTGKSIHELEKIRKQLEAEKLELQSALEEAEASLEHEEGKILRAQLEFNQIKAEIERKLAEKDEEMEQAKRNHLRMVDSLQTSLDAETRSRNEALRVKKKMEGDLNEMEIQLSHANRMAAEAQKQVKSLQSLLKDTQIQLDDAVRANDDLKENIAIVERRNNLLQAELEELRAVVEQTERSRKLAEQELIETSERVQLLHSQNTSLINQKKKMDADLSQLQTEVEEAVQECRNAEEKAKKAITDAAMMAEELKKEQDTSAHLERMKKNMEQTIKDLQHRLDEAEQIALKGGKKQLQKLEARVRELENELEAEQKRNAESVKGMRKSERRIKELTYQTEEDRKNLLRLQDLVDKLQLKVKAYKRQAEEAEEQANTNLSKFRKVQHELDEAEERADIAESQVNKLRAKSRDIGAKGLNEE
Sequence of UniProt Q91Z83 (P09542 2-204, chain 2 of 3, further chain): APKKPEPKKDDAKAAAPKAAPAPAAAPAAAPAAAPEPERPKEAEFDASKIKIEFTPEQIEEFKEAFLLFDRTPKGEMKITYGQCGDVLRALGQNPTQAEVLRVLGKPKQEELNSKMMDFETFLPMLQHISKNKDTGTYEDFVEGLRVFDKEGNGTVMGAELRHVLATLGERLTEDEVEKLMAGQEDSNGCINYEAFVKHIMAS
Sequence of UniProt Q91Z83 (P51667 2-166, chain 3 of 3, further chain): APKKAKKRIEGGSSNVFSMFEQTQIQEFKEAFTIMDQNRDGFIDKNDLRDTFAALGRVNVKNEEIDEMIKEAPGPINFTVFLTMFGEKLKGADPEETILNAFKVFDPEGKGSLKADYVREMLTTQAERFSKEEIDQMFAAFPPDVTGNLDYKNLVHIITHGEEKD

Row | Substance | stoichiometry N [1] | Kd [2] [µM] | Kd [3] [µM] | Kd [4] [nM]
1 | recombinant proximal (126 residues) human myosin S2 (hS2) (domain or fragment) | 0.96 | 4.95 | 4.73 | –
2 | recombinant human cMyBP-C C0-C2 region with D389V (hC0-C2^D389V) (domain or fragment) | – | – | – | 900
3 | wild-type recombinant human cMyBP-C C0-C2 region (hC0-C2^WT) (domain or fragment) | – | – | – | 840
